{
  "source": "patent US20210246166A1",
  "about": "(Bayer, published 2021)",
  "binders": {"B1": {"name": "Example 360: (4-(3,5-Dimethyl-1,2-oxazol-4-yl)-L-phenylalanine)-IC+SRSLP-(Oic)-I-(Pen)+IP-NH2 (peptide)", "peptide": "[X7]ICSRSLP[Oic]I[Pen]IP-NH2", "modifications": "disulfide 3-11; N-terminus assumed", "SMILES": "CC[C@H](C)[C@H](NC(=O)[C@@H](N)Cc1ccc(-c2c(C)noc2C)cc1)C(=O)N[C@H]1CSSC(C)(C)[C@@H](C(=O)N[C@H](C(=O)N2CCC[C@H]2C(N)=O)[C@@H](C)CC)NC(=O)[C@H]([C@@H](C)CC)NC(=O)[C@@H]2C[C@@H]3CCCC[C@@H]3N2C(=O)[C@@H]2CCCN2C(=O)[C@H](CC(C)C)NC(=O)[C@H](CO)NC(=O)[C@H](CCCNC(=N)N)NC(=O)[C@H](CO)NC1=O"}, "B2": {"name": "Example 361: ((N-Me)G)-PIC+SRS-((tBu)A)-PPI-(Pen)+IP-NH2 (peptide)", "peptide": "[Sar]PICSRS[tBuAla]PPI[Pen]IP-NH2", "modifications": "disulfide 4-12; N-terminus assumed", "SMILES": "CC[C@H](C)[C@H](NC(=O)[C@@H]1CCCN1C(=O)CNC)C(=O)N[C@H]1CSSC(C)(C)[C@@H](C(=O)N[C@H](C(=O)N2CCC[C@H]2C(N)=O)[C@@H](C)CC)NC(=O)[C@H]([C@@H](C)CC)NC(=O)[C@@H]2CCCN2C(=O)[C@@H]2CCCN2C(=O)[C@H](CC(C)(C)C)NC(=O)[C@H](CO)NC(=O)[C@H](CCCNC(=N)N)NC(=O)[C@H](CO)NC1=O"}, "B3": {"name": "Example 362: (4-(Aminomethyl)benzoic acid)-IC+SRSLPPI-((N-Me)C)+IPD-NH2 (peptide)", "peptide": "[4Amb]ICSRSLPPI[NMeC]IPD-NH2", "modifications": "disulfide 3-11; N-terminus assumed", "SMILES": "CC[C@H](C)[C@H](NC(=O)c1ccc(CN)cc1)C(=O)N[C@H]1CSSC[C@@H](C(=O)N[C@H](C(=O)N2CCC[C@H]2C(=O)N[C@@H](CC(=O)O)C(N)=O)[C@@H](C)CC)N(C)C(=O)[C@H]([C@@H](C)CC)NC(=O)[C@@H]2CCCN2C(=O)[C@@H]2CCCN2C(=O)[C@H](CC(C)C)NC(=O)[C@H](CO)NC(=O)[C@H](CCCNC(=N)N)NC(=O)[C@H](CO)NC1=O"}, "B4": {"name": "Example 364: (Tranexamic)-IC+SRSLPPI-((N-Me)C)+IPD-NH2 (peptide)", "peptide": "Tranexamic-ICSRSLPPI[NMeC]IPD-NH2", "modifications": "disulfide 2-10"}, "B5": {"name": "Example 367: ((N-Me)G)-IC+SRSLPPIC+I-(Oic)-D-OH (peptide)", "peptide": "[Sar]ICSRSLPPICI[Oic]D-OH", "modifications": "disulfide 3-11; N-terminus assumed", "SMILES": "CC[C@H](C)[C@H](NC(=O)CNC)C(=O)N[C@H]1CSSC[C@@H](C(=O)N[C@H](C(=O)N2[C@H](C(=O)N[C@@H](CC(=O)O)C(=O)O)C[C@@H]3CCCC[C@@H]32)[C@@H](C)CC)NC(=O)[C@H]([C@@H](C)CC)NC(=O)[C@@H]2CCCN2C(=O)[C@@H]2CCCN2C(=O)[C@H](CC(C)C)NC(=O)[C@H](CO)NC(=O)[C@H](CCCNC(=N)N)NC(=O)[C@H](CO)NC1=O"}, "B6": {"name": "Example 368: IC+SRSLP-(Oic)-I-(Pen)+I-OH (peptide)", "peptide": "ICSRSLP[Oic]I[Pen]I-OH", "modifications": "disulfide 2-10; N-terminus assumed", "SMILES": "CC[C@H](C)[C@H](N)C(=O)N[C@H]1CSSC(C)(C)[C@@H](C(=O)N[C@H](C(=O)O)[C@@H](C)CC)NC(=O)[C@H]([C@@H](C)CC)NC(=O)[C@@H]2C[C@@H]3CCCC[C@@H]3N2C(=O)[C@@H]2CCCN2C(=O)[C@H](CC(C)C)NC(=O)[C@H](CO)NC(=O)[C@H](CCCNC(=N)N)NC(=O)[C@H](CO)NC1=O"}, "B7": {"name": "Example 369: IC+SRSLP-(Oic)-I-(Pen)+IPE-OH (peptide)", "peptide": "ICSRSLP[Oic]I[Pen]IPE-OH", "modifications": "disulfide 2-10; N-terminus assumed", "SMILES": "CC[C@H](C)[C@H](N)C(=O)N[C@H]1CSSC(C)(C)[C@@H](C(=O)N[C@H](C(=O)N2CCC[C@H]2C(=O)N[C@@H](CCC(=O)O)C(=O)O)[C@@H](C)CC)NC(=O)[C@H]([C@@H](C)CC)NC(=O)[C@@H]2C[C@@H]3CCCC[C@@H]3N2C(=O)[C@@H]2CCCN2C(=O)[C@H](CC(C)C)NC(=O)[C@H](CO)NC(=O)[C@H](CCCNC(=N)N)NC(=O)[C@H](CO)NC1=O"}, "B8": {"name": "Example 370: fIC+SRSLP-(Oic)-I-(Pen)+IP-NH2 (peptide)", "peptide": "[dF]ICSRSLP[Oic]I[Pen]IP-NH2", "modifications": "disulfide 3-11; N-terminus assumed", "SMILES": "CC[C@H](C)[C@H](NC(=O)[C@H](N)Cc1ccccc1)C(=O)N[C@H]1CSSC(C)(C)[C@@H](C(=O)N[C@H](C(=O)N2CCC[C@H]2C(N)=O)[C@@H](C)CC)NC(=O)[C@H]([C@@H](C)CC)NC(=O)[C@@H]2C[C@@H]3CCCC[C@@H]3N2C(=O)[C@@H]2CCCN2C(=O)[C@H](CC(C)C)NC(=O)[C@H](CO)NC(=O)[C@H](CCCNC(=N)N)NC(=O)[C@H](CO)NC1=O"}, "B9": {"name": "Example 371: PPIC+SRS-((tBu)A)-PPI-(Pen)+I-NH2 (peptide)", "peptide": "PPICSRS[tBuAla]PPI[Pen]I-NH2", "modifications": "disulfide 4-12; N-terminus assumed", "SMILES": "CC[C@H](C)[C@H](NC(=O)[C@H]1NC(=O)[C@H]([C@@H](C)CC)NC(=O)[C@@H]2CCCN2C(=O)[C@@H]2CCCN2C(=O)[C@H](CC(C)(C)C)NC(=O)[C@H](CO)NC(=O)[C@H](CCCNC(=N)N)NC(=O)[C@H](CO)NC(=O)[C@@H](NC(=O)[C@@H](NC(=O)[C@@H]2CCCN2C(=O)[C@@H]2CCCN2)[C@@H](C)CC)CSSC1(C)C)C(N)=O"}, "B10": {"name": "Example 372: IC+SRSLP-(Oic)-I-(Pen)+IPE-NH2 (peptide)", "peptide": "ICSRSLP[Oic]I[Pen]IPE-NH2", "modifications": "disulfide 2-10; N-terminus assumed", "SMILES": "CC[C@H](C)[C@H](N)C(=O)N[C@H]1CSSC(C)(C)[C@@H](C(=O)N[C@H](C(=O)N2CCC[C@H]2C(=O)N[C@@H](CCC(=O)O)C(N)=O)[C@@H](C)CC)NC(=O)[C@H]([C@@H](C)CC)NC(=O)[C@@H]2C[C@@H]3CCCC[C@@H]3N2C(=O)[C@@H]2CCCN2C(=O)[C@H](CC(C)C)NC(=O)[C@H](CO)NC(=O)[C@H](CCCNC(=N)N)NC(=O)[C@H](CO)NC1=O"}, "B11": {"name": "Example 373: (Aib)-IC+SRSLPPIC+IPD-NH2 (peptide)", "peptide": "[Aib]ICSRSLPPICIPD-NH2", "modifications": "disulfide 3-11; N-terminus assumed", "SMILES": "CC[C@H](C)[C@@H]1NC(=O)[C@@H]2CCCN2C(=O)[C@@H]2CCCN2C(=O)[C@H](CC(C)C)NC(=O)[C@H](CO)NC(=O)[C@H](CCCNC(=N)N)NC(=O)[C@H](CO)NC(=O)[C@@H](NC(=O)[C@@H](NC(=O)C(C)(C)N)[C@@H](C)CC)CSSC[C@@H](C(=O)N[C@H](C(=O)N2CCC[C@H]2C(=O)N[C@@H](CC(=O)O)C(N)=O)[C@@H](C)CC)NC1=O"}, "B12": {"name": "Example 374: AIC+SRSLPPIC+(2-Methyl-D-alloisoleucine)-PD-NH2 (peptide)", "peptide": "AICSRSLPPIC[2‑Methyl‑D‑alloisoleucine]PD-NH2", "modifications": "disulfide 3-11"}, "B13": {"name": "Example 376: ((N-Me)G)-IC+SRSLP-(Oic)-I-(Pen)+IP-NH2 (Citrate) (peptide)", "peptide": "[Sar]ICSRSLP[Oic]I[Pen]IP-NH2", "modifications": "disulfide 3-11; also: citrate salt"}},
  "note": "Numbered stars: 1 amine (or outer) side, 2 acyl side, 3 side chain; on linkers, the order of the positions; unused ones are H or OH. Bridge positions count the residues as written; N and C are the ends. Square brackets hold non-standard residues; d marks the D form. Ends that are not written are not given here. X7 = 4‑(3,5-Dimethyl-1,2-oxazol-4-yl)‑L‑phenylalanine, Cc1noc(C)c1-c1ccc(C[C@H](N[*:1])C(=O)[*:2])cc1; Oic = O=C(O)[C@@H]1C[C@@H]2CCCC[C@@H]2N1; tBuAla = CC(C)(C)C[C@H](N)C(=O)O; Pen = CC(C)(S)[C@H](N)C(=O)O; 4Amb = NCc1ccc(C(=O)O)cc1; NMeC = CN[C@@H](CS)C(=O)O; Aib = CC(C)(N)C(=O)O; Sar = CNCC(=O)O",
  "data": [
    {"target": "recombinant human MASP2 active protease (amino acids 297-686, C-terminal His Tag) (human, UniProt O00187 297-686)", "sequence (O00187 other isoform, or with tags, fused parts or gaps limits assumed)": "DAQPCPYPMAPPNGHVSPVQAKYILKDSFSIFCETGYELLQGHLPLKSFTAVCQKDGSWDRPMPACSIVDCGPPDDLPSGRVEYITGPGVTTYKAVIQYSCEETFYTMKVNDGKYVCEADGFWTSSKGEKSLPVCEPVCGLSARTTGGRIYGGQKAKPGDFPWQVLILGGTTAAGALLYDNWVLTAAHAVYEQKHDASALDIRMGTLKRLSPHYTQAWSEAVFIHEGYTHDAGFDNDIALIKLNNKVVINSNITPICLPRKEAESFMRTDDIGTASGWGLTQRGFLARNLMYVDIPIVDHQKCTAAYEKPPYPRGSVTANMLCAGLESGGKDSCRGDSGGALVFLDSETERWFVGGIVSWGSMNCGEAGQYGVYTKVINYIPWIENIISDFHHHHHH", "assay": "cell-based or functional assay", "units": {"human MASP2 IC50": "nM"}, "values": [
      {"binder": "B1", "human MASP2 IC50": 55},
      {"binder": "B2", "human MASP2 IC50": 1000},
      {"binder": "B3", "human MASP2 IC50": 65},
      {"binder": "B4", "human MASP2 IC50": 98},
      {"binder": "B5", "human MASP2 IC50": 600},
      {"binder": "B6", "human MASP2 IC50": 1200},
      {"binder": "B7", "human MASP2 IC50": 420},
      {"binder": "B8", "human MASP2 IC50": 93.5},
      {"binder": "B9", "human MASP2 IC50": 810},
      {"binder": "B10", "human MASP2 IC50": 660},
      {"binder": "B11", "human MASP2 IC50": 450},
      {"binder": "B12", "human MASP2 IC50": 14000},
      {"binder": "B13", "human MASP2 IC50": 35}
    ]},
    {"target": "T1, recombinant human MASP1 active protease (amino acids 297-699, C-terminal His Tag) (human, UniProt P48740 297-699)", "T1 sequence": "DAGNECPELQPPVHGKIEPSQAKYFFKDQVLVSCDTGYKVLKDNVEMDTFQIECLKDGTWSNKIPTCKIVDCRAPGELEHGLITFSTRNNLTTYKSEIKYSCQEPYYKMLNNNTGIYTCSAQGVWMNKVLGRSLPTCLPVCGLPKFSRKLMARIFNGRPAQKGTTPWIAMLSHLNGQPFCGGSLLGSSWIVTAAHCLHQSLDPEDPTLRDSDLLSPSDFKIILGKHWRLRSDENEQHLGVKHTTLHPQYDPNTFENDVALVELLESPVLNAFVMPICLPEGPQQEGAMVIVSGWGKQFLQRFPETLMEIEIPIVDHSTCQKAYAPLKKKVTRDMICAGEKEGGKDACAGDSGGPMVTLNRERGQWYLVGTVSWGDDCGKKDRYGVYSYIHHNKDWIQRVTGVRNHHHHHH", "assay": "cell-based or functional assay", "units": {"human MASP1 IC50": "nM"}, "values": [
      {"binder": "B1", "human MASP1 IC50": 31},
      {"binder": "B2", "human MASP1 IC50": 32},
      {"binder": "B3", "human MASP1 IC50": 33},
      {"binder": "B4", "human MASP1 IC50": 33},
      {"binder": "B5", "human MASP1 IC50": 35},
      {"binder": "B6", "human MASP1 IC50": 35},
      {"binder": "B7", "human MASP1 IC50": 35},
      {"binder": "B8", "human MASP1 IC50": 35},
      {"binder": "B9", "human MASP1 IC50": 36},
      {"binder": "B10", "human MASP1 IC50": 36},
      {"binder": "B11", "human MASP1 IC50": 37},
      {"binder": "B12", "human MASP1 IC50": 37},
      {"binder": "B13", "human MASP1 IC50": 1.1}
    ]}
  ]
}
